Test results from the DeepSol protein solubility set.

Assay: soluble on expression in E. coli; label from the status in PepcDB or PDB records

| Sequence | soluble on expression in E. coli |
| --- | --- |
| MAESCVKPQLPRPRIPNIRVFQPTTRIPTFTYEQFNESVEILPSRPECLYRRNDPTNRSYRMKKRPPAQIYHCVQCNKHIKYPSKITEHIRKHTGEKPNVCSICNISFSQAHTLKTHMQQHAHEKPYKCSFCTAEFLNVYEKNEHEEQHMHHPNHGETMEENNATTSQFIQVAEPTIQAEPCQIYECSEMCGFQSYEEAEVVEHMTVTHYQQTKKSKEIPKLKNPGFSINFNYFQVQNGLILQDFNGEPEPIYEFYEEQYVQQVPTEIEETPTIKQQSIPYENLHFEHVEAAPGPSEPHLQVVAEGEILYDGEEIVDISNGKSLKEEIQNGDANIYGMIQDLEEEVEDIGNEDEERERVRIMVNPNPPKRGTKSLRDHHEATAATMEMIVDASILELAEPSRHLKQGYPPISKRKNTGKRAENLDWIIDAVAKGVDVSEASPHHRKKPTLHKCEYCGRVDKYPSKIRAHMRTHTGEKPFKCEICGMAFSQKTPMRLHLRRHFDQKPYECDVDGCKERFVSGAILKMHVEKKHLNKKKYVCSRGCGRVFSSAYNQKHHEKKCEQTYVTWVEGEQQSVESGEEDEESNGEYPDDDEEYMDDMIDASTSQPINRVVEHFSEEPVFLHQ | not soluble |
| MEQYHKIVLTGSNAETMLIKNIEPVAVKFINNYKGFFYVFKYSKDFPIIDVYINNKIVTENQLNKILQNSGAKYKIYKNSIFNETQGNFGMLGDKYLAEFFKKTNEISLNILNQNFESYNKKIEFALEIMLISAHYNYDSIKKGYLSYASHVNGFFTRWKDPNKIRDIFHKNYLNNKEYLESKVSEIIDNNNRSSLSELSDIITEMKKEMTTDIEKGNLHVFNIELLQKPGERDFLEKSQFHKTILNNPDFSNFMNKDINFLGSRLITVFTYLLIRNLGIQNKDRYLLCYYIYKIIEEKYNIDTLELIRDFGKGRDNNVEDLQRY | not soluble |
| MSWSDIINNNLIGSGNVSKAAILGFDGAVWAKSDNFNISVEEAVAAGKAFTSLDALLGTGLRLEGQKFLVLNADNDRIIGKQGGSGFFIYKTIQAVIISIYEKGLQPEMCSKTTGALADYFRSIKY | not soluble |
| MSLLALGIEGTAHTLGIGIVSEKKVLANVFDTLTTEKGGIHPKEAAEHHARLMKPLLKKALEKAGISMDDIDVIAFSQGPGLGPALRVVATAARALAIRYNKPIVGVNHCIAHVEITKMFGIKDPVGLYVSGGNTQVLALEGGRYRVFGETLDIGIGNAIDVFARELGLGFPGGPKLEKLAEKGKNYIDLPYAVKGMDLSFSGLLTEAIRKYRSGKFRVEDLAYSFQETAFAALVEVTERALAHTEKKEVVLVGGVAANNRLREMLKIMAEDRGVKFFVPPYDLCRDNGAMIAYTGLRMYKAGISFPLEKTIVKQKFRTDEVEITWEGHHHHHH | not soluble |
| SNEFFPVDDNNEGTDADMKEDSEGPEPKGLSPPHKKSKAKKPESSKDSSEDESGPEEKQTAEEMEGQSQEADGVNTTPVPSPASEDKAEVHKDEADSAKDDNTVKDSDMTNHSVCDQELPNGQENDSAKSEGKTEAESPSSSMETEDLSPNQEDAAIVEQPEVIPLIDDQEAQEGGEAQGKDAPAVFAESQGSSEAENTSGPDVDMNSQVDGVNEPTESLQEDLQ | not soluble |
| FGSLTVFAGDSPYAPPAGGEAIGRLMERAMHDGLVAGGIVLVGNRHGTIYEHVFGKQSSLPDSPPVTSSTIFDIASLTKVIATTPAVMRLAEEGRLSLVDPLVRWFPEFAGHGKDDVLVVHLLTHTSGLDDFSLSSADPLQSAISGVAAQKLKGEPGNRFRYADINFILLGELVRRVTGSTLDRYAADAFLRPLGMKDTAFLPGPAIAERCAATLDGSGGPHFGTVQDPLARLLGGVAGHAGLFGTASDLALFCRMILGEGELNGRRVLEERTVRQMTAPYFSRGGKVTRGLGWDMASPFSSPRGEGFSEESFGHTGYSGGSIWIDPRTDTYVIFLS | not soluble |
| MAHHHHHHMSSKRTEGTAADEERRRTSAASSGSSSVSSTDSDEASSSVSDSSSSGSGSSSDSESSDSERPSSTPQRQSAAAAERATSTQQLQQQRHVQLNPELRFERPDKEYIPLPPLRDMQDMVKVLFLLSTDKKRYPDGRHRTLDYFRVAVEMFVTEVRQEYKRQYQQAQRNGRAMQRFTWKNSGELAICFACCCDNVKLLYDSLQPGPLKPLWDAFVGQLPPMLIVQSRVPETMLSSQTYHTKYMDWVKGGTRYGGEQSTANVRFPSVADRRVKVETYLRSGAGYKIEAVQVGSTPAAPAAVPAAVAPRPSLAAAAAPMQALETRAPFAGRLPGTGSAKVPVAPGVGGPRPPVKVPMKHVGGGVAHGSVTTAAAPPLASTSVKQMPPEMKHLFWLSVLAHVKGGEASRAFPDDRLEALPGLLRLCEMTEHTEEMCILMDVLAASSSGVQTVFERLGGLLSFRRFASHFIQSEEAEPLMQLVEQLARWRVAAWGSTSQQAWQTDMNQRRTRDLMWLRTLPLIPEAKRAAWGALLLVMEQRYIFKAPRPDDTTAVDNPLKRRRSEVELGDLHAVLSDNVDMQRWVVPRVNVFSAVRLPVELRVPPLCTKLEENTVRFLNAKREYAEKMQVTWRERLEKILSAQPRAPGPAVPVPLWYDPYALLRVASPQP | soluble |
| MGSDKIHHHHHHMSTFIFPGDSFPVDPTTPVKLGPGIYCDPNTQEIRPVNTGVLHVSAKGKSGVQTAYIDYSSKRYIPSVNDFVIGVIIGTFSDSYKVSLQNFSSSVSLSYMAFPNASKKNRPTLQVGDLVYARVCTAEKELEAEIECFDSTTGRDAGFGILEDGMIIDVNFNFARQLLFNNDFPLLKVLAAHTKFEVAIGLNGKIWVKCEELSNTLACYRTIMECCQKNDTAAFKDIAKRQFKEILTVKEE | not soluble |
| MSLENGVLKVGLCAAWPPFESRNETTGEIEGFDVDLAKALGEELGVEVEIIDAEWQALLGGLSKGDYDTLITCMSKKEASVENVEMSDVYYELNDVIVVRNDNNEINSVSDLSGKIVGVQLGSGSEQAVDALSGIQEIKRYNYNPEAMIDLQNNRSDAVVVGYTYALSEISKYPDLKVLDTPVASAEIVMVQKEGAEELTAKLNEALSNIKENGKYDEIQDKWLSLEEGHHHHHH | soluble |
| GPGSMPIKAVVTDLDGTLLDPQHCISNYAAEVLKKIKEKGICFIVATGRPYAEVFNRIRHCHLAPDYIITSNGARIHDGAFNVVREHNLRPELVESLARVRTVKDPATGAELPKKFTTNIYRGAEWLTDKSIPEVSKAFHTDFQCTDLRERFYELQASELGDVHEIWFAGDHDELVLLDNALREKYPGDLCCTFSLPHLLDCVPAGVNKGNGVREAAEMLGLALDEVACFGDGMNDESMLQVTSTSFIMANAQQRLKDAVPHAQIIGSNADDGVAKKLEEMFFSA | soluble |
| MSLQENPYQLVKDVEGIGFGKADELGSRMGLSGNHPERVKAAILYTLETTCLSEGHTYIETEQLIIDTQSLLNQSAREGQRITEMDAANAIIALGENKDIVIEDGRCYFPSLFYAEQNVAKRVKHIASQTEYENQFPESEFLLALGELEERMDVQYAPSQKEAIQKALSSPMLLLTGGPGTGKTTVIRGIVELYGELHGVSLDPSAYKKDEAFPIVLAAPTGRAAKRMSESTGLPAVTIHRLLGWNGAEGFTHTEDQPIEGKLLIIDEASMLDIWLANHLFKAIPDHIQIIIVGDEDQLPSVGPGQVLRDLLASQVIPTVRLTDIYRQAEGSSIVELAHQMKNGLLPNNLTAPTKDRSFIRCGGSQIKEVVEKVVANALKKGYTAKDIQVLAPMYRGKAGINELNVMLQDILNPPKEKRRELKFGDVVYRTGDKILQLVNQPENNVFNGDIGEITSIFYAKENTEKEDMAVVSFDGNEMTFTKKDFNQFTHAYCCSIHKSQGSEFPIVVLPVVKGYYRMLRRNLLYTAITRAKKFLILCGEEEALEWGVKNNDATVRQTSLKNRLSVQVEEGHHHHHH | soluble |
| MRVFPVTLGPLQENAYLVETGEGPVLIDPGDEPEKLLALFQTTGLIPLAILLTHAHFDHVGAVAPLVEALDLPVYLHPLDLPLYEGADLAARAWGLAIPKPPLPVRPLEEGMRLFGFQVLHLPGHSPGHVAFYDPEGAQVFSGDLLFRGSVGRYDLPGADPKALFASLKRLLSLPPETRVHPGHGPGTTLGLEARTNPFLTGLEWEA | soluble |
| GSQEQKGDAPTCGICHKTKFADGCGHNCSYCQTKFCARCGGRVSLRSNKVMWVCNLCRKQQE | soluble |
| MAMIHEMILDGKVVRYRVVEKPVKYVTLRVLEDGTILVVTPLEQIVREVLIKKKDWILSKISIVEEAKELSRKGFPLFGKFYSLEMGEKFEINREELRITFPGIEFLRNWIKREIKRKAREIAKDFGISPKRIYVKAMRTKWGSATWRKSITLNFSSAALPEELFHYLVIHELAHLIELNHSKRFWSLVASYHPDYKKKRRELKKWWFIVHSNETWRAILQWPEGLEHHHHHH | soluble |
| YWGPLDVGEAKSLPGMEDPKLVYIPSIAPSNMVLYRGDKYSELDGKILVGALKLTHINVVGINDGKLTESQRLLEKLGERIRDITISPDGYIYFSTDSGKIFRLTEQ | not soluble |
| MGSDKIHHHHHHMDEYNFIVEKLQELGLTKREAEVYLAILMKNGATVKDLLETLDVHQPQLYNIIQSLIRKGFIRASAGRPRVYTANDITALIDVQKMKLDSLKRILQEELGKIRENEGEEPYISYVRSLEGVLASAIETINSAEVEIRAELPYQIYKELSPYFVSALRRGINLYLLVYPTTKSFIELADFKNQIKVKTSELGNFLLIISDLHRAVYSKRRFFTIHKLPISENEVYGYIIHEKDLLLRLLNIHNNLWVKAKEIIGWIPGPEVYPKTFIDFSMALNELEALLRLGYTPIVRVLGRDVKSEYPIEVSGRVRAVNRIGIVSNFILESNEGTFTVGGFDAEIEDIEAQRVIIEKVEREGGKKP | not soluble |
| MKIQLHKWPKSVIDRLDLVFLDAPFPCQGKSDVEGIFDPPYYEWFQFNKEFTEYTNFEKCLEYLEDRMIKLGPFDGLIGFSQGAILSGGLPGLQAKGIAFQKVPKIKFVIIIGGAKLKSAKLAENAYSSSLETLSLHFLGETDFLKPYGTQLIESYKNPVVVHHPKGHTVPRLDEKSLEKVTAFIDTLEHLVMEEDKNGEENTSKPTK | soluble |
| MGSDKIHHHHHHMRTIEDDAALKILADVIKIPSVNDHELTVAKYLQDLLAKYDISAKIHPITGDRANLVAEIGHGQPVLAVSGHMDVVAAGDLAAWDTDPFTLVEKSGQLFGRGVTDMKAGLVALVVAMINIQQQGGPKHGTIRLLATMGEEVGEAGSAAFYQQGAMQDAAGLLIAEPSTVYGTAAEQKGSCDLKLTSKGKAVHSSTPERGYNALVPLIKLLNEANDYFETIPAGEMGPVRFNIDVLNGGDQVNSLPDLATALVNVRTIPEYDNDQVTQKLADLIAAYNQQGADIKMTAIMNESPIATTADNRLVKLVQAIGKPYAGRDVVVASSPGITDASNLAKRQPADFPFAVYGPGNMTQHQVNESLPKQMFYDFIAIYQQLFTRFLAE | not soluble |
| MQNYSVSVTSDRPAPFQQITIPLADGTVLHARLWLPQTPLADRVPLVLEWIPYRQSDGTALADSMMHGYFAEQGIAAARVDIRGSGNSDGLLHDEYLKQEQDDACEVIAWFARQDWCNGNVGLIGISWGGFAGLQIAARRPPALKCIITACSTDNRYTDDVHYMGGALLSDGMQWGSGLFAQLGRPADPKHVGDRWREMWMNRLEGIKEPPLATWMQHTTYDDFWKHGSVCEDYDEIQCAVWAVGGWVDGYTDPILRLMEKLSVPKKALIGPWTHMYPTWGQPGPQIGFLQEAMRWWRHWLMDEDTGIMDEPQLTLWLGKDPKPDTRAPDIGGRWIGLP | not soluble |
